Assay results as given in patent publication US10766960 (dated 2020).
Like-named read-outs stand apart in the source and are kept apart here.

B1: H240-Kn033/H240-Hl033/L73-k0 (antibody)
chain 1: not shown
chain 2: not shown
chain 3: DIQMTQSPSSLSASVGDRVTITCRASQDIHKYIAWYQQKPGQAPRLLIQYTSTLQPGVPSRFSGSGSGTDYTFTISSLQPEDIATYYCLQYEQLRTFGGGTKVEIKRTVAAPSVFIFPPSDEQLKSGTASVVCLLNNFYPREAKVQWKVDNALQSGNSQESVTEQDSKDSTYSLSSTLTLSKADYEKHKVYACEVTHQGLSSPVTKSFNRGEC
B2: H240-Kn180/H240-Hl089/L73-k0 (antibody)
chain 1: QDQLVQSGAEVKKPGASVKVSCKASGFNIKDTYIQWVRQAPGQGLEWMGRIDPLRKQTKYREKFEGRVTITADTSTNTAYMELSSLRSEDTAVYYCVRSGREFDYWGQGTLVTVSSASTKGPSVFPLAPSSKSTSGGTAALGCLVKDYFPEPVTVSWNSGALTSGVHTFPAVLQSSGLYSLSSVVTVPSSSLGTQTYICNVNHKPSNTKVDKKVEPKSCDKTHTCPPCPAPEYYWGPMVFLFPPKPKDTLMISRTPEVTCVVVDVSDEDPEVKFNWYVDGVEVHNAKTKPRERQYNATYRVVSVLTVLHQDWLNGKEYKCKVSNKDLPAPIEKTISKAKGQPREPQVCTLPPSRDELTKNQVSLWCLVKGFYPSDIAVEWESNGQPENNYKTTPPVLDSDGSFFLYSKLTVDKSRWQQGNVFSCSVMHEALHNHYTQKSLSLSP
chain 2: QDQLVQSGAEVKKPGASVKVSCKASGFNIKDTYIQWVRQAPGQGLEWMGRIDPLRKQTKYREKFEGRVTITADTSTNTAYMELSSLRSEDTAVYYCVRSGREFDYWGQGTLVTVSSASTKGPSVFPLAPSSKSTSGGTAALGCLVKDYFPEPVTVSWNSGALTSGVHTFPAVLQSSGLYSLSSVVTVPSSSLGTQTYICNVNHKPSNTKVDKKVEPKSCDKTHTCPPCPAPELLTGPSVFLFPPKPKDTLMISRTPEVTCVVVDVSHEEPEVKFNWYVDGVEVHNAKTKPREEQYNSTYRVVSVLTVLHQDWLNGKEYKCKVSNDALPKPIEETISKAKGQPREPQVYTLPPSRCELTKNQVSLSCAVKGFYPSDIAVEWESNGQPENNYKTTPPVLDSDGSFFLVSKLTVDKSRWQQGNVFSCSVMHEALHNHYTQKSLSLSP
chain 3: DIQMTQSPSSLSASVGDRVTITCRASQDIHKYIAWYQQKPGQAPRLLIQYTSTLQPGVPSRFSGSGSGTDYTFTISSLQPEDIATYYCLQYEQLRTFGGGTKVEIKRTVAAPSVFIFPPSDEQLKSGTASVVCLLNNFYPREAKVQWKVDNALQSGNSQESVTEQDSKDSTYSLSSTLTLSKADYEKHKVYACEVTHQGLSSPVTKSFNRGEC
B3: H240-Kn032/H240-Hl032/L73-k0 (antibody)
chain 1: QDQLVQSGAEVKKPGASVKVSCKASGFNIKDTYIQWVRQAPGQGLEWMGRIDPLRKQTKYREKFEGRVTITADTSTNTAYMELSSLRSEDTAVYYCVRSGREFDYWGQGTLVTVSSASTKGPSVFPLAPSSKSTSGGTAALGCLVKDYFPEPVTVSWNSGALTSGVHTFPAVLQSSGLYSLSSVVTVPSSSLGTQTYICNVNHKPSNTKVDKKVEPKSCDKTHTCPPCPAPELLGGPDVFLFPPKPKDTLMISRTPEVTCVVVDVSHEDPEVKFNWYVDGVEVHNAKTKPREEQYNSTYRVVSVLTVLHQDWLNGKEYKCKVSNKALPLPEEKTISKAKGQPREPQVCTLPPSRDELTKNQVSLWCLVKGFYPSDIAVEWESNGQPENNYKTTPPVLDSDGSFFLYSKLTVDKSRWQQGNVFSCSVMHEALHNHYTQKSLSLSP
chain 2: QDQLVQSGAEVKKPGASVKVSCKASGFNIKDTYIQWVRQAPGQGLEWMGRIDPLRKQTKYREKFEGRVTITADTSTNTAYMELSSLRSEDTAVYYCVRSGREFDYWGQGTLVTVSSASTKGPSVFPLAPSSKSTSGGTAALGCLVKDYFPEPVTVSWNSGALTSGVHTFPAVLQSSGLYSLSSVVTVPSSSLGTQTYICNVNHKPSNTKVDKKVEPKSCDKTHTCPPCPAPELLGGPDVFLFPPKPKDTLMISRTPEVTCVVVDVSHEDPEVKFNWYVDGVEVHNAKTKPREEQYNSTYRVVSVLTVLHQDWLNGKEYKCKVSNKALPLPEEKTISKAKGQPREPQVYTLPPSRCELTKNQVSLSCAVKGFYPSDIAVEWESNGQPENNYKTTPPVLDSDGSFFLVSKLTVDKSRWQQGNVFSCSVMHEALHNHYTQKSLSLSP
chain 3: DIQMTQSPSSLSASVGDRVTITCRASQDIHKYIAWYQQKPGQAPRLLIQYTSTLQPGVPSRFSGSGSGTDYTFTISSLQPEDIATYYCLQYEQLRTFGGGTKVEIKRTVAAPSVFIFPPSDEQLKSGTASVVCLLNNFYPREAKVQWKVDNALQSGNSQESVTEQDSKDSTYSLSSTLTLSKADYEKHKVYACEVTHQGLSSPVTKSFNRGEC
B4: GpH7-A44/GpH7-B3/GpL16-k0 (antibody)
chain 1: QVQLVQSGAEVKKPGASVTVSCKASGYTFTDYEMHWIRQPPGEGLEWIGAIDPKTGDTAYSESFQDRVTLTADKSTSTAYMELSSLTSEDTAVYYCTRFYSYTYWGQGTLVTVSSASTKGPSVFPLAPSSKSTSGGTAALGCLVKDYFPEPVTVSWNSGALTSGVHTFPAVLQSSGLYSLSSVVTVPSSSLGTQTYICNVNHKPSNTKVDKKVEPKSCDKTHTCPPCPAPELLGGPSVFLFPPKPKDTLMISRTPEVTCVVVDVSHEDPEVKFNWYVDGVEVHNAKTKPREEQYNSTYRVVSVLTVLHQDWLNGKEYKCKVSNKALPAPEEKTISKAKGQPREPQVYTLPPSRKELTKNQVSLTCLVKGFYPSDIAVEWESNGQPENNYKTTPPVLDSDGSFFLYSKLTVDKSRWQQGNVFSCSVMHEALHNRYTQKSLSLSP
chain 2: not shown
chain 3: DIVMTQSPLSLPVTPGEPASISCQASESLVHSNRNTYLHWYLQKPGQSPQLLIYKVSNRFSGVPDRFSGSGSGTDFTLKISRVEAEDVGVYYCSQNTHVPPTFGQGTKVEIERTVAAPSVFIFPPSDEQLKSGTASVVCLLNNFYPREAKVQWKVDNALQSGNSQESVTEQDSKDSTYSLSSTLTLSKADYEKHKVYACEVTHQGLSSPVTKSFNRGEC
B5: GpH7-A5/GpH7-B80/GpL16-k0 (antibody)
chain 1: not shown
chain 2: not shown
chain 3: DIVMTQSPLSLPVTPGEPASISCQASESLVHSNRNTYLHWYLQKPGQSPQLLIYKVSNRFSGVPDRFSGSGSGTDFTLKISRVEAEDVGVYYCSQNTHVPPTFGQGTKVEIERTVAAPSVFIFPPSDEQLKSGTASVVCLLNNFYPREAKVQWKVDNALQSGNSQESVTEQDSKDSTYSLSSTLTLSKADYEKHKVYACEVTHQGLSSPVTKSFNRGEC

How the values were obtained:
Test in all cases: SPR
FcgRIIIa V [1] = target: T1, FcgRIIIa V (human, UniProt P08637)
FcgRIIa H [2] = target: T2, FcgRIIa H (human, UniProt P12318)
T2 chain: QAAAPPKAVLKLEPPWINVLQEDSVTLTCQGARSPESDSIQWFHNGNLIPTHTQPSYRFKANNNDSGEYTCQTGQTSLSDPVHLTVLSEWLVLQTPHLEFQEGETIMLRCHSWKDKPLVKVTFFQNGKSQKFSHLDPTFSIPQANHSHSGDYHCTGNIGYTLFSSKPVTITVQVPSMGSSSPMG

FcgRIIa H [3] = target: T2, FcgRIIa H
FcgRIIb [4] = target: T3, FcgRIIb (human, UniProt P31994)
T3 chain: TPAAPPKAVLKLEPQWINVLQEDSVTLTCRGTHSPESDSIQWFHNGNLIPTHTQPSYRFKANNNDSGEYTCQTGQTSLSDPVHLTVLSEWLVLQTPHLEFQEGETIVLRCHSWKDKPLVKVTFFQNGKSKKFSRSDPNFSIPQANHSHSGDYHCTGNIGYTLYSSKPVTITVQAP

FcgRIIIa V [5] = target: T1, FcgRIIIa V; remark: listed apart in the source
FcgRIIa R [6] = target: T4, FcgRIIa R (human, UniProt P12318)
T4 chain: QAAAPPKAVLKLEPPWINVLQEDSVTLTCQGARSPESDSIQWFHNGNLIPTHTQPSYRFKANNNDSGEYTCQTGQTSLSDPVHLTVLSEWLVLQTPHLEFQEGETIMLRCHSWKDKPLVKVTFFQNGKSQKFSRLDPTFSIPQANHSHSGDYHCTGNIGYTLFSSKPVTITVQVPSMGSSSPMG

FcgRIIa R [7] = target: T4, FcgRIIa R
FcgRIa [8] = target: T5, FcgRIa (human, UniProt P12314)
T5 chain: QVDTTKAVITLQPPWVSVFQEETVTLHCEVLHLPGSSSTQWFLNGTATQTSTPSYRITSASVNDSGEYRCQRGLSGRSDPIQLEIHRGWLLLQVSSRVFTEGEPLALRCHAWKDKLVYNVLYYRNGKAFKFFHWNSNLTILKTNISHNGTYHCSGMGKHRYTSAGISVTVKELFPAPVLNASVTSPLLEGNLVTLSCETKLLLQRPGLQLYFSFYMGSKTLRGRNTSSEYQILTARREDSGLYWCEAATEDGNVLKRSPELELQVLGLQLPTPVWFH

FcgRIa [9] = target: T5, FcgRIa
FcgRIIIa F [10] = target: T6, FcgRIIIa F (human, UniProt P08637)
FcgRIIIa F [11] = target: T6, FcgRIIIa F; remark: listed apart in the source
FcgRIIb [12] = target: T3, FcgRIIb
FcgRIIb [13] = target: T3, FcgRIIb
FcgRIIb [14] = target: T3, FcgRIIb
FcgRIa [15] = target: T5, FcgRIa
FcgRIIa H [16] = target: T2, FcgRIIa H
FcgRIIIa F [17] = target: T6, FcgRIIIa F; remark: listed apart in the source
FcgRIIa R [18] = target: T4, FcgRIIa R
FcgRIIIa V [19] = target: T1, FcgRIIIa V; remark: listed apart in the source
FcgRIIIa F [20] = target: T6, FcgRIIIa F; remark: listed apart in the source

T6 sequence (P08637 17-208): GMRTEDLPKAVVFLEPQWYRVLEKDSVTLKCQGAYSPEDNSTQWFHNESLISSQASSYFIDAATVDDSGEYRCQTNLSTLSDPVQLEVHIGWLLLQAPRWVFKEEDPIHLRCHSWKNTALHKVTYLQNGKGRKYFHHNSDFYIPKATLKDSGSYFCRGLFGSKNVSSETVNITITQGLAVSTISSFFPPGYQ
T1 sequence (P08637 17-208 F176V): as the sequence (P08637 17-208) above, with F160V counted along it

Binder | Kd (FcgRIIa H [2]) [nM] | Kd (FcgRIIb [4]) [nM] | Kd (FcgRIIIa V [5]) [nM] | Kd (FcgRIIa R [6]) [nM] | Kd (FcgRIa [9]) [nM] | Kd (FcgRIIIa F [10]) [nM] | Kd (FcgRIIb [13]) [nM] | Kd (FcgRIIIa F [20]) [nM] | other results
B1 | 930 | 4100 | 390 | 1000 | 0.25 | 2600 | 4200 |  | Kd (FcgRIIIa V [1]): 48 nM; Kd (FcgRIIa H [3]): 520 nM; Kd (FcgRIIa R [7]): 740 nM; Kd (FcgRIa [8]): 0.095 nM; Kd (FcgRIIIa F [11]): 290 nM; Kd (FcgRIIb [12]): 3300 nM
B2 |  |  |  |  |  |  |  |  | Kd (FcgRIIb [14]): 380 nM; Kd (FcgRIa [15]): 0.27 nM; Kd (FcgRIIa H [16]): 38 nM; Kd (FcgRIIIa F [17]): 24 nM; Kd (FcgRIIa R [18]): 16 nM; Kd (FcgRIIIa V [19]): 14 nM
B3 | 690 | 620 | 3.1 | 340 | 0.073 | 9.1 | 630 |  | 
B4 |  |  |  |  |  |  |  | 370 | 
B5 |  |  |  |  |  |  |  | 470 | 
